Results reported in US20110263454A1, “Methods of Identifying Functional Characteristics of Promoters, Transcription Modifying Proteins and Transcription Modulating Agents” (Salk Institute for Biological Studies, priority 2008, published 2011).

B1: RORa: RAR-related Orphan Receptor α (NR1F1), cDNA driver (protein, UniProt P35398 1-523, looked up)
Nuclear receptor ROR-alpha: MESAPAAPDPAASEPGSSGADAAAGSRETPLNQESARKSEPPAPVRRQSYSSTSRGISVTKKTHTSQIEIIPCKICGDKSSGIHYGVITCEGCKGFFRRSQQSNATYSCPRQKNCLIDRTSRNRCQHCRLQKCLAVGMSRDAVKFGRMSKKQRDSLYAEVQKHRMQQQQRDHQQQPGEAEPLTPTYNISANGLTELHDDLSNYIDGHTPEGSKADSAVSSFYLDIQPSPDQSGLDINGIKPEPICDYTPASGFFPYCSFTNGETSPTVSMAELEHLAQNISKSHLETCQYLREELQQITWQTFLQEEIENYQNKQREVMWQLCAIKITEAIQYVVEFAKRIDGFMELCQNDQIVLLKAGSLEVVFIRMCRAFDSQNNTVYFDGKYASPDVFKSLGCEDFISFVFEFGKSLCSMHLTEDEIALFSAFVLMSADRSWLQEKVKIEKLQQKIQLALQHVLQKNHREDGILTKLICKVSTLRALCGRHTEKLMAFKAIYPDIVRLHFPPLYKELFTSEFEPAMQIDG
B2: RORg: RAR-related Orphan Receptor γ (NR1F3), cDNA driver (protein, UniProt P51449 1-518, looked up)
Nuclear receptor ROR-gamma: MDRAPQRQHRASRELLAAKKTHTSQIEVIPCKICGDKSSGIHYGVITCEGCKGFFRRSQRCNAAYSCTRQQNCPIDRTSRNRCQHCRLQKCLALGMSRDAVKFGRMSKKQRDSLHAEVQKQLQQRQQQQQEPVVKTPPAGAQGADTLTYTLGLPDGQLPLGSSPDLPEASACPPGLLKASGSGPSYSNNLAKAGLNGASCHLEYSPERGKAEGRESFYSTGSQLTPDRCGLRFEEHRHPGLGELGQGPDSYGSPSFRSTPEAPYASLTEIEHLVQSVCKSYRETCQLRLEDLLRQRSNIFSREEVTGYQRKSMWEMWERCAHHLTEAIQYVVEFAKRLSGFMELCQNDQIVLLKAGAMEVVLVRMCRAYNADNRTVFFEGKYGGMELFRALGCSELISSIFDFSHSLSALHFSEDEIALYTALVLINAHRPGLQEKRKVEQLQYNLELAFHHHLCKTHRQSILAKLPPKGKLRSLCSQHVERLQIFQHLHPIVVQAAFPPLYKELFSTETESPVGLSK
B3: HNF4a: Hepatocyte Nuclear Factor α (NR2A1), cDNA driver (protein, UniProt P41235 1-474, looked up)
Hepatocyte nuclear factor …: MRLSKTLVDMDMADYSAALDPAYTTLEFENVQVLTMGNDTSPSEGTNLNAPNSLGVSALCAICGDRATGKHYGASSCDGCKGFFRRSVRKNHMYSCRFSRQCVVDKDKRNQCRYCRLKKCFRAGMKKEAVQNERDRISTRRSSYEDSSLPSINALLQAEVLSRQITSPVSGINGDIRAKKIASIADVCESMKEQLLVLVEWAKYIPAFCELPLDDQVALLRAHAGEHLLLGATKRSMVFKDVLLLGNDYIVPRHCPELAEMSRVSIRILDELVLPFQELQIDDNEYAYLKAIIFFDPDAKGLSDPGKIKRLRSQVQVSLEDYINDRQYDSRGRFGELLLLLPTLQSITWQMIEQIQFIKLFGMAKIDNLLQEMLLGGSPSDAPHAHHPLHPHLMQEHMGTNVIVANTMPTHLSNGQMCEWPRPRGQAATPETPQPSPPGGSGSEPYKLLPGAVATIVKPLSAIPQPTITKQEVI
B4: LXRb: Liver X Receptor β (NR1H2), cDNA driver (protein, UniProt P55055 1-460, looked up)
Oxysterols receptor LXR-beta: MSSPTTSSLDTPLPGNGPPQPGAPSSSPTVKEEGPEPWPGGPDPDVPGTDEASSACSTDWVIPDPEEEPERKRKKGPAPKMLGHELCRVCGDKASGFHYNVLSCEGCKGFFRRSVVRGGARRYACRGGGTCQMDAFMRRKCQQCRLRKCKEAGMREQCVLSEEQIRKKKIRKQQQESQSQSQSPVGPQGSSSSASGPGASPGGSEAGSQGSGEGEGVQLTAAQELMIQQLVAAQLQCNKRSFSDQPKVTPWPLGADPQSRDARQQRFAHFTELAIISVQEIVDFAKQVPGFLQLGREDQIALLKASTIEIMLLETARRYNHETECITFLKDFTYSKDDFHRAGLQVEFINPIFEFSRAMRRLGLDDAEYALLIAINIFSADRPNVQEPGRVEALQQPYVEALLSYTRIKRPQDQLRFPRMLMKLVSLRTLSSVHSEQVFALRLQDKKLPPLLSEIWDVHE

What was measured:
[1] = test system: mCAR promoter; experiment: NHR-promoter luciferase screen, mCAR promoter; type: cell-based, mouse; conditions: for luciferase activity normalized to lacZ activity and to a control, mCAR: mCAR promoter-luciferase, CV-1 cells, NHR +/- ligand, control = 1.00; for Luc. act., normalized to lacZ / Normalized Luc. act., normalized to control: mCAR promoter, HR/ligand component
Method: (§1) The use, feasibility, and reproducibility of the functional NHR-promoter screen in a 48-well format have been tested validated. Briefly, there were co-expressed 50 ng of each NHR/NHR homodimer or NHR/RXR heterodimer with 100 ng promoter/luciferase construct and 50 ng of LacZ (as a control for transfection efficiency) in CV-1 cells using Fugene HD (Roche) as a transfection reagent (alternatively or additionally, a CMV-YFP construct can be used as a transfection control). Each of the nuclear hormone receptors that were used in these experiments was cloned into a pcDNA3.1 vector and comprised a C-terminally linked V5H6 tag. Twenty-four hours after transfection, appropriate ligands were added, where applicable, (see Table 5 for various ligands and concentrations and after 48 hrs, samples were assayed for luciferase and LacZ activity. To measure for luciferase activity 15 ul of sample was added to 30 ul of luciferase buffer (20 mM tricine, 1.07 mM MgCarbonate, 2.67 mM MgSulfate, 0.1 mM Naz-EDTA, 5 mM DTT, 5 mM ATP, 0.15 mg/ml CoA, 0.5 mM Luciferin), mixed briefly, and run in a Perkin Elmer Victor 5 luminometer. Thus, the functional NHR-promoter screen was used to observe the transcriptional activity of 29 promoters from various physiological pathways including inflammation, lipid and sugar metabolism, cholesterol transport, xenobiotic metabolism, and circadian rhythm.
(§2) The promoters that facilitate transcription of the indicated gene products that were tested using the protocols described herein are listed in the first row of the table. The nuclear hormone receptors and, where applicable, ligands that were assayed for their transcriptional effects on the promoters are listed in the first column of the table. The data represent the luciferase activity of each sample normalized to both the lacZ activity of that sample and to a control, e.g., no NHR or ligand, as customary in the art. As described previously, these normalizations allow the transcriptional activity of each reporter cell to be compared to other samples.
(§3) Tables 7-40 show the transcriptional effects of the hormone receptors, and, where applicable, ligands (orphan receptors are screened without ligand), on each individual promoter. […] The control data of each table are shown in their last rows.

[2] = test system: hCAR promoter; experiment: NHR-promoter luciferase screen, hCAR promoter; type: cell-based, human; conditions: for luciferase activity normalized to lacZ activity and to a control, hCAR: hCAR promoter-luciferase, CV-1 cells, NHR +/- ligand, control = 1.00; for Luc. act., normalized to lacZ / Normalized Luc. act., normalized to control: hCAR promoter, HR/ligand component
Method: as §1, §2, §3

[3] = test system: mUCP2 promoter; experiment: NHR-promoter luciferase screen, mUCP2 promoter; type: cell-based, mouse; conditions: for Luc. act., normalized to lacZ / Normalized Luc. act., normalized to control: mUCP2 promoter reporter, co-transfected HR, with or without its ligand; for Normalized Luc. act., normalized to control: relative to control; for luciferase activity normalized to lacZ activity and to a control, mUCP2: mUCP2 promoter-luciferase, CV-1 cells, NHR +/- ligand, control = 1.00
Method: as §1, §2, §3

[4] = test system: mNPY promoter; experiment: NHR-promoter luciferase screen, mNPY promoter; type: cell-based, mouse; conditions: for Results of assays of transcription factor (+/- ligand) with mNPY: Table 6d, luciferase activity relative to control (control = 1.00); for Luc. act., normalized to lacZ / Normalized Luc. act., normalized to control: mNPY promoter, HR component with or without ligand; for Normalized Luc. act., normalized to control: relative to control
Method: as §1, §2, §3

[5] = test system: mAdiponectin promoter; experiment: NHR-promoter luciferase screen, mAdiponectin promoter; type: cell-based, mouse; conditions: for Luc. act., normalized to lacZ / Normalized Luc. act., normalized to control: Adiponectin, HR component without or with its ligand; for mAdiponectin promoter reporter activity: transcription factor +/- ligand, control = 1.00
Method: as §1, §2, §3

[6] = test system: Bmal1 promoter; experiment: NHR-promoter luciferase screen, Bmal1 promoter; type: cell-based, mouse; conditions: for Luc. act., normalized to lacZ / Normalized Luc. act., normalized to control: Bmal1 promoter, HR component without or with ligand; for mBmal1 promoter reporter activity: transcription factor +/- ligand, control = 1.00; for regulation of the Bmal1 promoter: FIG. 2c, in words
Method: as §1, §2, §3

Row | Molecule | luciferase activity normalized to lacZ activity and to a control, mCAR [1] | Luc. act., normalized to lacZ [1] | Normalized Luc. act., normalized to control [1] | luciferase activity normalized to lacZ activity and to a control, hCAR [2] | Luc. act., normalized to lacZ [2] | Normalized Luc. act., normalized to control [2] | Luc. act., normalized to lacZ [3] | Normalized Luc. act., normalized to control [3] | luciferase activity normalized to lacZ activity and to a control, mUCP2 [3] | Results of assays of transcription factor (+/- ligand) with mNPY [4] | Luc. act., normalized to lacZ [4] | Normalized Luc. act., normalized to control [4] | Luc. act., normalized to lacZ [5] | Normalized Luc. act., normalized to control [5] | mAdiponectin promoter reporter activity [5] | Luc. act., normalized to lacZ [6] | Normalized Luc. act., normalized to control [6] | mBmal1 promoter reporter activity [6] | regulation of the Bmal1 promoter [6] | regulation of the Constitutive Androstane Receptor (CAR) promoter ([1]; FIG. 2a, in words)
1 | TLX: Tailless (homolog of drosophila) (NR2E1), cDNA driver | 0.39 | 15.0 | 0.4 | 0.56 | 17.6 | 0.6 | 111.9 | 1.0 | 1.02 | 1.11 | 93.5 | 1.1 | 78.4 | 1.2 | 1.25 | 12.2 | 0.8 | 0.78 | – | –
2 | VDR: Vitamin D Receptor (NR1I1), cDNA driver | 0.69 | 26.5 | 0.7 | 0.83 | 26.1 | 0.8 | 136.2 | 1.2 | 1.24 | 0.79 | 66.7 | 0.8 | 57.4 | 0.9 | 0.91 | 22.0 | 1.4 | 1.40 | – | –
3 | B1 | 0.55 | 20.9 | 0.5 | 0.58 | 18.2 | 0.6 | 104.0 | 0.9 | 0.95 | 0.90 | 75.4 | 0.9 | 80.0 | 1.3 | 1.27 | 115.6 | 7.4 | 7.40 | specific activation | –
4 | B2 | 1.13 | 43.1 | 1.1 | 1.22 | 38.6 | 1.2 | 169.5 | 1.5 | 1.54 | 0.91 | 76.5 | 0.9 | 133.3 | 2.1 | 2.12 | 58.9 | 3.8 | 3.77 | specific activation | –
5 | B3 | 16.83 | 641.2 | 16.8 | 15.62 | 493.6 | 15.6 | 136.4 | 1.2 | 1.24 | 0.52 | 43.5 | 0.5 | 25.4 | 0.4 | 0.40 | 10.1 | 0.6 | 0.65 | – | Specific and strong activation
6 | B4 | 0.92 | 34.9 | 0.9 | 1.44 | 45.5 | 1.4 | 170.7 | 1.6 | 1.55 | 0.81 | 68.0 | 0.8 | 61.7 | 1.0 | 0.98 | 17.4 | 1.1 | 1.11 | – | –
